In the supplement of paper PMC10065799, “High-throughput profiling of sequence recognition by tyrosine kinases and SH2 domains using bacterial peptide display” (eLife, 2023):

biological target: FGFR3 (UniProt P22607); test: phosphorylation enrichment, bacterial display (enrichment ratio); higher = better substrate or ligand; peptides without Tyr show the background
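Note: 11-residue human phosphosite peptides and single-mutation variants displayed on the E. coli surface, counted by deep sequencing, each peptide's frequency after selection divided by its frequency in the unselected input library; frequency after pTyr selection over input frequency; kinase dosed for 20-30% of maximal phosphorylation in three min.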

Sequence of FGFR3 (P22607 whole entry, looked up): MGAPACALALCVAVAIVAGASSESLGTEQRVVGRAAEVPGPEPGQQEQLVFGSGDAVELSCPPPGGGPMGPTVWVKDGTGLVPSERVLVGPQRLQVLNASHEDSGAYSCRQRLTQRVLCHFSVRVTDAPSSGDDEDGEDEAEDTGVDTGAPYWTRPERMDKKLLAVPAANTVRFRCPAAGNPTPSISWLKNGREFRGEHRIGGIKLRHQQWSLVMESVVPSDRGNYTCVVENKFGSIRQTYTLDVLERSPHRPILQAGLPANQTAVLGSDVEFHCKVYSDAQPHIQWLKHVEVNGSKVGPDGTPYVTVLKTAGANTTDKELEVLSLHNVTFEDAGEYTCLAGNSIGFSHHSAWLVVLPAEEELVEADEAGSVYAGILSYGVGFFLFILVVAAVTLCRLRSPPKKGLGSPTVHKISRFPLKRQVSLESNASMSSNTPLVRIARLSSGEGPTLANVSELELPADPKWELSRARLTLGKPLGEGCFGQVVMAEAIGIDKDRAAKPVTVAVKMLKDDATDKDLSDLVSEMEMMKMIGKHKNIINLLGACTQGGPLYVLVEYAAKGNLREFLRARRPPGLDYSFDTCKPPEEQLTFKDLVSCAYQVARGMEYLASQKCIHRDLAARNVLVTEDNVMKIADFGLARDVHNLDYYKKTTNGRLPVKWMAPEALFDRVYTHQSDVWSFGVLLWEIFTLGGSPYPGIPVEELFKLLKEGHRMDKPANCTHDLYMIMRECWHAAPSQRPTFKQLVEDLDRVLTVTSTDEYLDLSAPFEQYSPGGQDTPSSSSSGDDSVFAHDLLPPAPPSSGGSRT

| Sequence | phosphorylation enrichment |
| --- | --- |
| QLQQAYQEAFE [YWHAZ_Y149_S145L] | 3.04 |
| RSFLSYYTSHV [NEFL_Y442_P440L] | 0.834 |
| CKLFQYFLDHL [ATRX_Y1849_YF] | 0.873 |
| MFNPMYALFRT [HUWE1_Y4078] | 0.676 |
| QMIETYFDFRL [NSMF_Y506] | 5.67 |
| KNKNRCKNILP [PTPN11_Y279_Y279C] | 0.959 |
| KNDSNYVVKGN [KIT_Y823] | 0.447 |
| VVRSLYEDLED [VHL_Y185_I180V] | 0.792 |
| EVKAQYEDIAQ [KRT1_Y358] | 0.748 |
| DRPASYLEKVR [KRT13_Y118_L115P] | 0.404 |
| YAFQLYDLDRD [CHP2_Y123] | 1.55 |
| TTANRYLKVSD [MYOM2_Y871] | 0.41 |
| NQNIGYKLGHR [KCNN3_Y268] | 0.358 |
| LEIETYRRLRD [KRT12_Y429_L433R] | 0.809 |
| CPEARYNRSPI [PTAR1_Y42] | 0.617 |
| GAVGHYVLAER [HFE_Y342_M339V] | 1.23 |

| Sequence | phosphorylation enrichment |
| --- | --- |
| EKMWSYTKSAE [GRIA3_Y705_M706T] | 0.529 |
| SEDANYKRVSC [TTC3_Y1288] | 0.696 |
| GHNDVYILEHV [GRIN2A_Y1423_S1425L] | 0.594 |
| MTRDIYRASYY [ALK_Y1278_A1274T] | 0.676 |
| VDSIEYEVASQ [SLC7A7_Y7_T5I] | 0.729 |
| GEVLVYAEDPA [FLNA_Y319_V320A] | 0.704 |
| RARIRYAQEHD [NSD1_Y1987] | 0.625 |
| FQKDVYNIPPS [NEDD9_Y177_D178N_YF] | 0.468 |
| SFPHEYGSQEG [RBM10_Y48_R46H_YF] | 1.46 |
| LVVFEYMRHGD [NTRK1_Y591_M587V] | 0.625 |
| KNRDVSSSDFF [USP24_Y2134_Y2134S_YF] | 0.539 |
| GEETDYTPVWC [UROD_Y30] | 0.92 |
| YSDPSYVKQME [CDC5L_Y464] | 0.716 |
| NAGDYYDLYGG [PTPN11_Y63_T59A] | 18.9 |
| LPEVSYVKAID [GLRA1_Y307_K304E] | 0.1 |

test system: Fer (mouse); test: as above

| Sequence | phosphorylation enrichment |
| --- | --- |
| AFLGEYIPTVF [RAC2_Y32_P29L] | 0.568 |
| ESMLRYEVFGG [STOX1_Y607_YF] | 0.386 |
| QLQQAYQEAFE [YWHAZ_Y149_S145L] | 1.72 |
| RSFLSYYTSHV [NEFL_Y442_P440L] | 0.491 |
| CKLFQYFLDHL [ATRX_Y1849_YF] | 0.635 |
| MFNPMYALFRT [HUWE1_Y4078] | 4.26 |
| QMIETYFDFRL [NSMF_Y506] | 0.622 |
| KNKNRCKNILP [PTPN11_Y279_Y279C] | 0.488 |
| KNDSNYVVKGN [KIT_Y823] | 0.323 |
| VVRSLYEDLED [VHL_Y185_I180V] | 1.24 |
| EVKAQYEDIAQ [KRT1_Y358] | 0.761 |
| DRPASYLEKVR [KRT13_Y118_L115P] | 0.276 |
| YAFQLYDLDRD [CHP2_Y123] | 1.12 |
| TTANRYLKVSD [MYOM2_Y871] | 0.484 |
| NQNIGYKLGHR [KCNN3_Y268] | 0.322 |
| LEIETYRRLRD [KRT12_Y429_L433R] | 0.351 |

| Sequence | phosphorylation enrichment |
| --- | --- |
| CPEARYNRSPI [PTAR1_Y42] | 0.435 |
| GAVGHYVLAER [HFE_Y342_M339V] | 0.363 |
| EKMWSYTKSAE [GRIA3_Y705_M706T] | 0.411 |
| SEDANYKRVSC [TTC3_Y1288] | 0.491 |
| GHNDVYILEHV [GRIN2A_Y1423_S1425L] | 0.567 |
| MTRDIYRASYY [ALK_Y1278_A1274T] | 0.462 |
| VDSIEYEVASQ [SLC7A7_Y7_T5I] | 0.464 |
| GEVLVYAEDPA [FLNA_Y319_V320A] | 0.385 |
| RARIRYAQEHD [NSD1_Y1987] | 0.737 |
| FQKDVYNIPPS [NEDD9_Y177_D178N_YF] | 0.371 |
| SFPHEYGSQEG [RBM10_Y48_R46H_YF] | 0.47 |
| LVVFEYMRHGD [NTRK1_Y591_M587V] | 0.456 |
| KNRDVSSSDFF [USP24_Y2134_Y2134S_YF] | 0.427 |
| GEETDYTPVWC [UROD_Y30] | 1.02 |
| YSDPSYVKQME [CDC5L_Y464] | 0.409 |
| NAGDYYDLYGG [PTPN11_Y63_T59A] | 2.53 |

biological target: Fes (UniProt P07332); test: as above
Sequence (P07332 whole entry, looked up): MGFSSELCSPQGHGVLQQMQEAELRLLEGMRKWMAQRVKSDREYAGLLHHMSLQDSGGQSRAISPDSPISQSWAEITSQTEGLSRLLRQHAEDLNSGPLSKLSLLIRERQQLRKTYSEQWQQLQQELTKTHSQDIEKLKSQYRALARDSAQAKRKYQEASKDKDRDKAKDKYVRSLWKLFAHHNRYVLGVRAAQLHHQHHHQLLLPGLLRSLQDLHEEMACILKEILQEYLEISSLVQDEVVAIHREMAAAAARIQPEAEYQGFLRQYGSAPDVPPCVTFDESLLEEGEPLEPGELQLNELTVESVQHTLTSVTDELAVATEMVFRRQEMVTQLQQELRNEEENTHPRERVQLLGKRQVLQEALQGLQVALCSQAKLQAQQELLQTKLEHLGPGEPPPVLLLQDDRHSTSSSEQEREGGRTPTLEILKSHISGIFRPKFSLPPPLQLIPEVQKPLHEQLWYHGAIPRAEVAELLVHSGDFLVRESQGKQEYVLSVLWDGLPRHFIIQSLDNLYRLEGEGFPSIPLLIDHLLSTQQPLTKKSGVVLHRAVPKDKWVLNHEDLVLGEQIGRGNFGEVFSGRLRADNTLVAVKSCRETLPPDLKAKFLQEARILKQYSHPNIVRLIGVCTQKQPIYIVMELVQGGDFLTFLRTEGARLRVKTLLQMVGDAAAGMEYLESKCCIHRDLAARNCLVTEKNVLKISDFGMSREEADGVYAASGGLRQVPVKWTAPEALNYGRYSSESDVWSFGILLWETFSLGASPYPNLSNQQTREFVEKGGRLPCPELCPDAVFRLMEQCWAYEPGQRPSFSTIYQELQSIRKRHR

| Sequence | phosphorylation enrichment |
| --- | --- |
| AFLGEYIPTVF [RAC2_Y32_P29L] | 1.43 |
| ESMLRYEVFGG [STOX1_Y607_YF] | 0.993 |
| QLQQAYQEAFE [YWHAZ_Y149_S145L] | 2.69 |
